# Positions count from the first letter of the chain named.
# B1: J1-65D variant 1: humanised/de-immunised J1-65D: J1-65D_VL_1 + J1-65D_VH_1 (antibody, V domains shown)
# VH: QVQLVQSGAELKKPGSSVKVSCKASGYTFTDYEMHWVRQAPGQGLEWMGAIQPGGGGTAYNQKFKGRVTLTADKSTSTAYMELSSLRSEDTAVYYCTRRGYDDYPFAYWGQGTLVTVSSASTKGP
# VL: DIQMTQSPSSLSASVGDRVTITCRASGNIHNYLAWYQQKPGKAPKLLIYNAKTLADDVPSRFSGSGSGTDYTLTISSLQPEDFATYYCQHFWSAPWTFGGGTKLEIKRT
# B2: J1-65D variant 2: humanised/de-immunised J1-65D: J1-65D_VL_1 + J1-65D_VH_2 (antibody, V domains shown)
# VH: B1 VH with N61A
# VL: B1 VL
# B3: J1-65D variant 3: humanised/de-immunised J1-65D: J1-65D_VL_1 + J1-65D_VH_3 (antibody, V domains shown)
# VH: B1 VH with L11V, N61A, K65Q
# VL: B1 VL
# B4: J1-65D variant 7: humanised/de-immunised J1-65D: J1-65D_VL_2 + J1-65D_VH_3 (antibody, V domains shown)
# VH: B1 VH with L11V, N61A, K65Q
# VL: B1 VL with D57A
# B5: J1-65D variant 6: humanised/de-immunised J1-65D: J1-65D_VL_2 + J1-65D_VH_2 (antibody, V domains shown)
# VH: B1 VH with N61A
# VL: B1 VL with D57A
# B6: J1-65D variant 10: humanised/de-immunised J1-65D: J1-65D_VL_3 + J1-65D_VH_2 (antibody, V domains shown)
# VH: B1 VH with N61A
# VL: B1 VL with D57A, G100Q
# B7: J1-65D variant 11: humanised/de-immunised J1-65D: J1-65D_VL_3 + J1-65D_VH_3 (antibody, V domains shown)
# VH: B1 VH with L11V, N61A, K65Q
# VL: B1 VL with D57A, G100Q
# B8: J1-183D chimeric: chimeric antibody with unaltered CDRs: J1-183D_VL + J1-183D_VH (antibody, V domains shown)
# VH: QVQLQQPGTELVRPGVSVKISCKVSGYAFTDYAIHWIMQSHAKSLEWIGIINTYYGDSKYNQKFKDKATMTVDKSSNTAYMELARLTSEDSAIYYCARGYDGFAYWGQGTLVTVSS
# VL: DIQLTQSPASLSASVGETVTFTCRTSENIYSYLTWYQQKQGKSPQLLVYNAKILAAGVPSRFSGYGSGTQFSLKINSLQPEDFGTYYCQHHYDIPWTFGGGTKLEIK
# B9: J1-65D variant 15: humanised/de-immunised J1-65D: J1-65D_VL_4 + J1-65D_VH_3 (antibody, V domains shown)
# VH: QVQLVQSGAEVKKPGSSVKVSCKASGYTFTDYEMHWVRQAPGQGLEWMGAIQPGGGGTAYAQKFQGRVTLTADKSTSTAYMELSSLRSEDTAVYYCTRRGYDDYPFAYWGQGTLVTVSS
# VL: DIQMTQSPSSLSASVGDRVTITCRASQGIHNYLAWYQQKPGKAPKLLIYNAKTLADAVPSRFSGSGSGTDYTLTISSLQPEDFATYYCQQFWSAPWTFGQGTKLEIK
# B10: J1-65D variant 16: humanised/de-immunised J1-65D: J1-65D_VL_4 + J1-65D_VH_4 (antibody, V domains shown)
# VH: B9 VH with L70I
# VL: B9 VL
# B11: J1-65D variant 14: humanised/de-immunised J1-65D: J1-65D_VL_4 + J1-65D_VH_2 (antibody, V domains shown)
# VH: B9 VH with V11L, Q65K
# VL: B9 VL
# B12: J1-65D variant 13: humanised/de-immunised J1-65D: J1-65D_VL_4 + J1-65D_VH_1 (antibody, V domains shown)
# VH: B9 VH with V11L, A61N, Q65K
# VL: B9 VL
# Molecular target: T1, N1 binding to cell surface expressed hJ1 (Homo sapiens, UniProt P78504)
# T1 construct: cell expressed full length human J1 (hJ1; HEK293 transfectants); expressed in transfected cells; host or cells: HEK293
# T1 sequence (P78504 34-1218): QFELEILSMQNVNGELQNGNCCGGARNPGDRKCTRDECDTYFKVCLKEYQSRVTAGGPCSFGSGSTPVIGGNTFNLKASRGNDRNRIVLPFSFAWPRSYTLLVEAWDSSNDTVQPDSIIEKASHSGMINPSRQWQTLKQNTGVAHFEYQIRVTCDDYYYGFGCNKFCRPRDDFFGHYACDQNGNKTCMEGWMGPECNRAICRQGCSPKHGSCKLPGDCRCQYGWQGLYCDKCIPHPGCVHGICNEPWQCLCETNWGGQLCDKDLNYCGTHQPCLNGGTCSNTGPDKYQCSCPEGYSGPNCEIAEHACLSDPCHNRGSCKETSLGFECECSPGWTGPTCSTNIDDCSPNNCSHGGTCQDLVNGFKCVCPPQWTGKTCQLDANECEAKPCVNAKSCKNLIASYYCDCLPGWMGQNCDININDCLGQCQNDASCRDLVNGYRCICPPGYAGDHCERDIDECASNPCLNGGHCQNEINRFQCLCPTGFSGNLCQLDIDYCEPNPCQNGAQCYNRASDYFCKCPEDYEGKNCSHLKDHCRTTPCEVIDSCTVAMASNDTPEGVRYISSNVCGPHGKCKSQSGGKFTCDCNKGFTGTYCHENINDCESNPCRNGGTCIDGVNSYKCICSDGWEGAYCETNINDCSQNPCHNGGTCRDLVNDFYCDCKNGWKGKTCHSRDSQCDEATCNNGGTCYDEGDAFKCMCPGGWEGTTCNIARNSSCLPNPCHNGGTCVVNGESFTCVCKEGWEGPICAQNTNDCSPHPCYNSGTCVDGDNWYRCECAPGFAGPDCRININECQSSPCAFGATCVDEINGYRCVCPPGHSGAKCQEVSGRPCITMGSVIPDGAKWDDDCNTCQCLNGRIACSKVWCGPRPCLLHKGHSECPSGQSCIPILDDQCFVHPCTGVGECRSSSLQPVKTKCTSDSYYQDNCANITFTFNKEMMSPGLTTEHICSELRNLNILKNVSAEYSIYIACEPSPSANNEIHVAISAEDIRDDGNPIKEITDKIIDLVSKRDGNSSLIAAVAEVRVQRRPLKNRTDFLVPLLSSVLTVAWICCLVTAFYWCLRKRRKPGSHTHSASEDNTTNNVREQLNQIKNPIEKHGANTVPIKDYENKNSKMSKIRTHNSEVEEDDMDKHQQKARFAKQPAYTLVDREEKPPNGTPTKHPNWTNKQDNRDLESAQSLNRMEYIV
# Assay: Notch binding blocking assay (FACS): N1 EGF11-13 beads staining human J1-expressing cells
# Parameters: key: +: Complete blocking; X: No blocking
# Conditions: final antibody concentration 0.2 μg/ml
# Procedure: To functionally identify mAbs with the capacity to disrupt the J1-N1 protein:protein interaction, hybridoma culture supernatants were tested in a FACS-based binding assay. Biotinylated soluble human N1 EGF11-13 recombinant protein was bound to avidin-coated beads and used to stain J1-expressing cells in the presence or absence of each mAb that recognised cell surface hJ1 by FACS. […] The four blocking antibodies of the invention were also able to block the binding of recombinant […] to a biotin-tagged J1 DSL-EGF3 recombinant protein in an ELISA assay (FIG. 1B). […] The four blocking mAbs of the invention were purified from serum-free culture supernatants and equal concentrations of purified antibodies were used to compare their activity in subsequent assays (unless hybridoma supernatant was specified). Sequence conservation across the DSL domain raised the possibility that the J1 mAbs may also be able to bind the Jagged 2 (J2) protein. Antibody binding specificity was initially tested by immunocytochemical labelling of cytospin samples of hJ1 and hJ2 transfectants (FIG. 2). All antibodies stained J1 transfectants but none stained the J2 transfected cells, and J2 expression in the same experiment was confirmed using a commercial anti-J2 antibody. The specificity of the purified mAbs was further investigated in mammalian cells transfected with hJ2, human Delta-like ligand 4 (hDLL4), or mJ1 (FIG. 3). Transfectants were FACS stained with 10 μg/ml of each of the four blocking mAbs.
# To test the blocking efficiencies of the J1 mAbs, purified mAbs were titrated to determine the concentration required to block recombinant N1 binding to cell surface expressed hJ1. Beads coated with a bacterially-expressed N1 EGF11-13 protein were used to stain the hJ1-expressing cells in the presence of various concentrations of mAbs.
# The FACS-based binding assay using biotinylated soluble human N1 EGF11-13 recombinant protein bound to avidin-coated fluorescent beads to stain J1-expressing cells was performed using a dilution series of each variant mAb to test their ability to block J1 binding to N1 by FACS (Table 7). […] Thus 12/16 J1-65D1 variants V1-12 and all J1-183D variants have the desired binding and blocking activity.
# Human N1 EGF11-13 (411-526) was expressed in E. coli, refolded in vitro and labelled with purple fluorescent avidin-coated beads (Spherotech) as previously described. HEK293 cells transfected with human J1 or B16F10 cells transfected with mouse J1 were stained with N1 fluorescent beads in the presence of J1 antibody supernatants or purified antibody (murine, chimeric or humanised) diluted in HBBS/10% FCS. Cells were washed and re-suspended in staining buffer before being analysed with a FACSCalibur and data analysis with CellQuest. HEK293 cells transfected with human Jagged 2 and B16F10 cells transfected with human and mouse DLL4 were stained similarly to test blocking specificity.
row,Molecule,Blocking of Notch1 binding to cell surface Jagged 1
1,B1,X
2,B2,X
3,B3,X
4,B4,X
5,B5,X
6,B6,X
7,B7,X
8,B8,X

# Same assay, conditions: final antibody concentration 0.4 μg/ml
row,Molecule,Blocking of Notch1 binding to cell surface Jagged 1
1,B1,+ (Complete blocking)
2,B2,+ (Complete blocking)
3,B3,+ (Complete blocking)
4,B4,+ (Complete blocking)
5,B5,+ (Complete blocking)
6,B6,+ (Complete blocking)
7,B7,+ (Complete blocking)
8,B8,+ (Complete blocking)

# Same assay, conditions: final antibody concentration 0.6 μg/ml
row,Molecule,Blocking of Notch1 binding to cell surface Jagged 1
1,B1,+ (Complete blocking)
2,B2,+ (Complete blocking)
3,B3,+ (Complete blocking)
4,B4,+ (Complete blocking)
5,B5,+ (Complete blocking)
6,B6,+ (Complete blocking)
7,B7,+ (Complete blocking)
8,B8,+ (Complete blocking)

# Same assay, conditions: final antibody concentration 1.0 μg/ml
row,Molecule,Blocking of Notch1 binding to cell surface Jagged 1
1,B1,+ (Complete blocking)
2,B2,+ (Complete blocking)
3,B3,+ (Complete blocking)
4,B4,+ (Complete blocking)
5,B5,+ (Complete blocking)
6,B6,+ (Complete blocking)
7,B7,+ (Complete blocking)
8,B9,X
9,B10,X
10,B11,X
11,B8,+ (Complete blocking)

# Same assay, conditions: final antibody concentration 2.0 μg/ml
row,Molecule,Blocking of Notch1 binding to cell surface Jagged 1
1,B12,Partial
2,B9,Partial
3,B10,Partial
4,B11,Partial

# System: not listed separately
# Assay: Soluble aggregates of transiently expressed antibodies
# Type: physicochemical
# Conditions: Protein A purified antibody
# From the text: The protein yield of these antibodies, their levels of soluble aggregates and their binding affinity to the immunogen (J1-DE3) are illustrated in (Table 6).
row,Molecule,% soluble aggregate [%]
1,B1,0
2,B2,0
3,B3,1.67
4,B4,0
5,B5,0
6,B6,0.59
7,B7,1.00
8,B12,2.82
9,B9,5.29
10,B10,5.60
11,B11,6.61
12,B8,1.41

# From patent US9725518B2, “Antibodies that bind to Jagged 1” (Cancer Research Technology Limited, priority 2013, dated 2017)
